Results taken from US10011657B2, “Anti-CS1 antibodies and antibody drug conjugates” (AbbVie Biotherapeutics Inc., priority 2014, dated 2018).
Numbering of substitutions follows the chain as printed.

B1: Elotuzumab: monoclonal humanized IgG1 anti-CS1 antibody disclosed as HuLuc63 in U.S. Pat. No. 7,709,610 (antibody, V domains shown)
VH: EVQLVESGGGLVQPGGSLRLSCAASGFDFSRYWMSWVRQAPGKGLEWIGEINPDSSTINYAPSLKDKFIISRDNAKNSLYLQMNSLRAEDTAVYYCARPDGNYWYFDVWGQGTLVTVSS
VL: DIQMTQSPSSLSASVGDRVTITCKASQDVGIAVAWYQQKPGKVPKLLIYWASTRHTGVPDRFSGSGSGTDFTLTISSLQPEDVATYYCQQYSSYPYTFGQGTKVEIKR
B2: Hu27A12: humanized anti-CS1 antibody, VH SEQ ID NO: 24, VL SEQ ID NO: 26 (antibody, V domains shown)
VH: EVQLVESGGGLVQPGGSLRLSCAASGFTFSDYYMAWVRQAPGKGLEWVAEINYDGSSTYYVDSVKGRFTISRDNAKNSLYLQMNSLRAEDTAVYYCARDRGFYFDYWGQGTTVTVSS
VL: DVVMTQTPLSLSVTPGQPASISCRSSQSLVHNNGNTYLHWYLQKPGQSPQLLIYKVSNRFSGVPDRFSGSGSGTDFTLKISRVEAEDVGVYFCSQSTHVPPYTFGGGTKVEIK
B3: Hu31D2: humanized anti-CS1 antibody, VH SEQ ID NO: 16, VL SEQ ID NO: 19 (antibody, V domains shown)
VH: B2 VH with E50D, S56G, V61L, V64L, G66S, F102Y, T112L
VL: B2 VL with T7S, S12P, Q17E, N32S, Y102F

What was measured:
[1] = test system: relapsed or refractory multiple myeloma; conditions: elotuzumab added to lenalidomide and dexamethasone vs lenalidomide and dexamethasone control group; cited from earlier work
human CS1 [2] = biological target: T1, human CS1 (Homo sapiens, UniProt Q9NQ25); assay: Flow-cytometry competition assay with AF488-labeled Hu34C3; format: binding; conditions: 293s cells transfected with human CS1; 100 μg/mL test antibody, 10 μg/mL labeled Hu34C3
T1 construct: expressed in transfected cells; host or cells: 293s cells
T1 sequence (Q9NQ25 23-335): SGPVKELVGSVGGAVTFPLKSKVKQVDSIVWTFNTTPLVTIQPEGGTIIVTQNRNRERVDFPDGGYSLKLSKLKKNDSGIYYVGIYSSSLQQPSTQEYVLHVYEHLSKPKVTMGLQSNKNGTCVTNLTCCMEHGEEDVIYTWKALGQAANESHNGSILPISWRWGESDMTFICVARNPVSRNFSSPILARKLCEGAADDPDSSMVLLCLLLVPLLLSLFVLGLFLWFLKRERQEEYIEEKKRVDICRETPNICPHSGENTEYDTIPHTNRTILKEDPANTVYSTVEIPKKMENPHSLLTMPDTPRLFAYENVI
Protocol: For the competition assays, transfected 293s cells (300,000 cells per data point) were incubated for 30 min (on ice) with a tenfold excess of unlabeled test antibody (100 μg/mL).

human CS1 [3] = biological target: T1, human CS1; assay: Flow-cytometry competition assay with AF488-labeled elotuzumab; format: binding; conditions: 293s cells transfected with human CS1; 100 μg/mL test antibody, 10 μg/mL labeled elotuzumab
Protocol: A similar experiment was conducted with AF488-labeled elotuzumab at 10 μg/mL. Transfected 293s cells (300,000 cells per data point) were incubated for 30 min (on ice) with a tenfold excess of unlabeled antibody (100 μg/mL). After the incubation, 10 μg/mL of AF488-labeled elotuzumab was added to the cells and incubated on ice for 30 minutes. After this incubation, the cells were washed with PBS+1% FBS and binding of AF488-labeled elotuzumab determined by flow cytometry.

HuCS1 = biological target: T2, HuCS1 (Homo sapiens, UniProt Q9NQ25); assay: Flow-cytometry competition assay with AF488-labeled Luc34.3.8 on L-363 cells; format: binding; conditions: 20 μg/mL test antibody, 2 μg/mL labeled Luc34.3.8
T2 construct: L-363 cells (human multiple myeloma cell line) expressing HuCS1; endogenous in cells; host or cells: L-363 human multiple myeloma cell line
T2 sequence (Q9NQ25 23-335): as above
Protocol: A similar experiment was conducted with AF488-labeled Luc34.3.8 at 2 μg/mL. L-363 cells (human multiple myeloma cell line) expressing HuCS1 (300,000 cells per data point) was incubated for 30 min (on ice) with a tenfold excess of unlabeled test antibody (20 μg/mL). After the incubation, 2 μg/mL of AF488-labeled Luc34.3.8 was added to the cells and incubated on ice for 30 minutes. After this incubation, the cells were washed with PBS+1% FBS, and binding of AF488-labeled […] determined by flow cytometry.

human CS1 [4] = biological target: T1, human CS1; assay: Flow-cytometry competition assay with AF488-labeled PDL241 (humanized antibodies, Example 5); format: binding; conditions: 293s cells transfected with human CS1; 50 μg/mL test antibody, 5 μg/mL labeled PDL241
Protocol: 293s cells transfected with human CS1 were incubated at various concentrations with an AF488 labeled PDL241 antibody. […] Transfected 293s cells (300,000 cells per data point) were incubated for 30 min (on ice) with a tenfold excess of unlabeled test antibody (50 μg/mL). After the incubation, 5 μg/mL of AF488-labeled PDL241 was added to the cells and incubated on ice for 30 minutes. After this incubation, the cells were washed with PBS+1% FBS and binding of AF488-labeled PDL241 was determine by flow cytometry.

| Molecule | Relative reduction in the risk of disease progression or death [1] | Competition with AF488-labeled Hu34C3 for binding (human CS1 [2]) | Competition with AF488-labeled elotuzumab for binding (human CS1 [3]) | Competition with AF488-labeled Luc34.3.8 for binding (HuCS1) | Competition with AF488-labeled PDL241 for binding (human CS1 [4]) |
| --- | --- | --- | --- | --- | --- |
| B1 | 30% |  |  |  |  |
| B2 |  | None of the anti-CS1 antibodies tested (including Hu27A12 and Hu31D2) compete with Hu34C3 | do not compete with, and bind different epitopes than, elotuzumab | do not compete with, and bind different epitopes than, Luc34.3.8 | do not compete with, and bind different epitopes than, PDL241 |
| B3 |  | None of the anti-CS1 antibodies tested (including Hu27A12 and Hu31D2) compete with Hu34C3 | do not compete with, and bind different epitopes than, elotuzumab | do not compete with, and bind different epitopes than, Luc34.3.8 | do not compete with, and bind different epitopes than, PDL241 |
